Measured values taken from the supplement of paper PMC5998384.

What was measured:
[1] = tested on: HeLa Kyoto; test: melting temperature (median over replicates), in situ; higher = more thermally stable
[2] = tested on: HeLa Kyoto; test: solubility change mitosis vs G1/S (difference of NP-40 vs SDS log2 ratios) (log2 ratio difference); higher = more soluble in mitosis
[3] = tested on: HeLa Kyoto; test: solubility in G1/S (NP-40 vs SDS abundance) (log2 ratio); higher = more soluble; settings: cell cycle stage: G1/S
[4] = tested on: HeLa Kyoto; test: thermal stability score vs G1/S (z-score of summed log2 fold changes over temperatures); higher = more thermally stable than in G1/S
[5] = cell cycle stage: early G1 (4.5 h after nocodazole release)
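For melting temperature (median over replicates), in situ in this document: HeLa Kyoto cells synchronized by double thymidine or nocodazole block, proteins quantified by TMT10plex mass spectrometry, three independent biological replicates.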
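For solubility change mitosis vs G1/S (difference of NP-40 vs SDS log2 ratios) in this document: synchronized HeLa Kyoto cells (double thymidine block for G1/S, nocodazole release for mitosis), protein amounts in NP-40 versus SDS lysates quantified by mass spectrometry, three biological replicates.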
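For solubility in G1/S (NP-40 vs SDS abundance) in this document: HeLa Kyoto cells arrested at G1/S by double thymidine block, proteins quantified by TMT10plex mass spectrometry in mild NP-40 versus SDS extracts, three biological replicates.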
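For thermal stability score vs G1/S (z-score of summed log2 fold changes over temperatures) in this document: synchronized HeLa Kyoto cells, proteins quantified by TMT10plex mass spectrometry, three biological replicates, mitosis taken 0.5 h after nocodazole release, G1/S directly after double thymidine block.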

Row | Sequence | melting temperature ([1]; cell cycle stage: G1/S) [°C] | melting temperature ([1]; cell cycle stage: mitosis) [°C] | solubility change mitosis (log2) [2] | solubility in G1/S (log2) [3] | thermal stability score [4, 5] | thermal stability score ([4]; cell cycle stage: mitosis)
1 | MRGEQGAAGARVLQFTNCRILRGGKLLREDLWVRGGRILDPEKLFFEERRVADERRDCGGRILAPGFIDVQINGGFGVDFSQATEDVGSGVALVARRILSHGVTSFCPTLVTSPPEVYHKVVPQIPVKSGGPHGAGVLGLHLEGPFISREKRGAHPEAHLRSFEADAFQDLLATYGPLDNVRIVTLAPELGRSHEVIRALTARGICVSLGHSVADLRAAEDAVWSGATFITHLFNAMLPFHHRDPGIVGLLTSDRLPAGRCIFYGMIADGTHTNPAALRIAHRAHPQGLVLVTDAIPALGLGNGRHTLGQQEVEVDGLTAYVAGTKTLSGSIAPMDVCVRHFLQATGCSMESALEAASLHPAQLLGLEKSKGTLDFGADADFVVLDDSLHVQATYISGELVWQADAARQ [AMDHD2] | 55.1 | 54.3 | -0.0923 | -0.0483 | -1.01 | -2.12
2 | MTDTRRRVKVYTLNEDRQWDDRGTGHVSSGYVERLKGMSLLVRAESDGSLLLESKINPNTAYQKQQDTLIVWSEAENYDLALSFQEKAGCDEIWEKICQVQGKDPSVDITQDLVDESEEERFDDMSSPGLELPSCELSRLEEIAELVASSLPSPLRREKLALALENEGYIKKLLELFHVCEDLENIEGLHHLYEIIKGIFLLNRTALFEVMFSEECIMDVIGCLEYDPALSQPRKHREFLTKTAKFKEVIPISDPELKQKIHQTYRVQYIQDMVLPTPSVFEENMLSTLHSFIFFNKVEIVGMLQEDEKFLTDLFAQLTDEATDEEKRQELVNFLKEFCAFSQTLQPQNRDAFFKTLSNMGILPALEVILGMDDTQVRSAATDIFSYLVEYNPSMVREFVMQEAQQNDDVSKKLTEQKITSKDILLINLIIEHMICDTDPELGGAVQLMGLLRTLVDPENMLATANKTEKTEFLGFFYKHCMHVLTAPLLANTTEDKPSKDDFQTAQLLALVLELLTFCVEHHTYHIKNYIINKDILRRVLVLMASKHAFLALCALRFKRKIIGLKDEFYNRYIMKSFLFEPVVKAFLNNGSRYNLMNSAIIEMFEFIRVEDIKSLTAHVIENYWKALEDVDYVQTFKGLKLRFEQQRERQDNPKLDSMRSILRNHRYRRDARTLEDEEEMWFNTDEDDMEDGEAVVSPSDKTKNDDDIMDPISKFMERKKLKESEEKEVLLKTNLSGRQSPSFKLSLSSGTKTNLTSQSSTTNLPGSPGSPGSPGSPGSPGSVPKNTSQTAAITTKGGLVGLVDYPDDDEDDDEDEDKEDTLPLSKKAKFDS [PPP4R3A] | 52.9 | 52 | -0.214 | 0.0151 | -0.659 | 0.337
3 | MHPAVFLSLPDLRCSLLLLVTWVFTPVTTEITSLDTENIDEILNNADVALVNFYADWCRFSQMLHPIFEEASDVIKEEFPNENQVVFARVDCDQHSDIAQRYRISKYPTLKLFRNGMMMKREYRGQRSVKALADYIRQQKSDPIQEIRDLAEITTLDRSKRNIIGYFEQKDSDNYRVFERVANILHDDCAFLSAFGDVSKPERYSGDNIIYKPPGHSAPDMVYLGAMTNFDVTYNWIQDKCVPLVREITFENGEELTEEGLPFLILFHMKEDTESLEIFQNEVARQLISEKGTINFLHADCDKFRHPLLHIQKTPADCPVIAIDSFRHMYVFGDFKDVLIPGKLKQFVFDLHSGKLHREFHHGPDPTDTAPGEQAQDVASSPPESSFQKLAPSEYRYTLLRDRDEL [ERP44] | 53.9 | 54.1 | -0.0724 | 0.277 | 5.67 | 6.88
4 | MEKLHQCYWKSGEPQSDDIEASRMKRAAAKHLIERYYHQLTEGCGNEACTNEFCASCPTFLRMDNNAAAIKALELYKINAKLCDPHPSKKGASSAYLENSKGAPNNSCSEIKMNKKGARIDFKDVTYLTEEKVYEILELCREREDYSPLIRVIGRVFSSAEALVQSFRKVKQHTKEELKSLQAKDEDKDEDEKEKAACSAAAMEEDSEASSSRIGDSSQGDNNLQKLGPDDVSVDIDAIRRVYTRLLSNEKIETAFLNALVYLSPNVECDLTYHNVYSRDPNYLNLFIIVMENRNLHSPEYLEMALPLFCKAMSKLPLAAQGKLIRLWSKYNADQIRRMMETFQQLITYKVISNEFNSRNLVNDDDAIVAASKCLKMVYYANVVGGEVDTNHNEEDDEEPIPESSELTLQELLGEERRNKKGPRVDPLETELGVKTLDCRKPLIPFEEFINEPLNEVLEMDKDYTFFKVETENKFSFMTCPFILNAVTKNLGLYYDNRIRMYSERRITVLYSLVQGQQLNPYLRLKVRRDHIIDDALVRLEMIAMENPADLKKQLYVEFEGEQGVDEGGVSKEFFQLVVEEIFNPDIGMFTYDESTKLFWFNPSSFETEGQFTLIGIVLGLAIYNNCILDVHFPMVVYRKLMGKKGTFRDLGDSHPVLYQSLKDLLEYEGNVEDDMMITFQISQTDLFGNPMMYDLKENGDKIPITNENRKEFVNLYSDYILNKSVEKQFKAFRRGFHMVTNESPLKYLFRPEEIELLICGSRNLDFQALEETTEYDGGYTRDSVLIREFWEIVHSFTDEQKRLFLQFTTGTDRAPVGGLGKLKMIIAKNGPDTERLPTSHTCFNVLLLPEYSSKEKLKERLLKAITYAKGFGML [UBE3A] | 52.8 | 52 | -0.175 | -0.0632 | -0.231 | -0.936
5 | MAVLLLLLRALRRGPGPGPRPLWGPGPAWSPGFPARPGRGRPYMASRPPGDLAEAGGRALQSLQLRLLTPTFEGINGLLLKQHLVQNPVRLWQLLGGTFYFNTSRLKQKNKEKDKSKGKAPEEDEEERRRRERDDQMYRERLRTLLVIAVVMSLLNALSTSGGSISWNDFVHEMLAKGEVQRVQVVPESDVVEVYLHPGAVVFGRPRLALMYRMQVANIDKFEEKLRAAEDELNIEAKDRIPVSYKRTGFFGNALYSVGMTAVGLAILWYVFRLAGMTGREGGFSAFNQLKMARFTIVDGKMGKGVSFKDVAGMHEAKLEVREFVDYLKSPERFLQLGAKVPKGALLLGPPGCGKTLLAKAVATEAQVPFLAMAGPEFVEVIGGLGAARVRSLFKEARARAPCIVYIDEIDAVGKKRSTTMSGFSNTEEEQTLNQLLVEMDGMGTTDHVIVLASTNRADILDGALMRPGRLDRHVFIDLPTLQERREIFEQHLKSLKLTQSSTFYSQRLAELTPGFSGADIANICNEAALHAAREGHTSVHTLNFEYAVERVLAGTAKKSKILSKEEQKVVAFHESGHALVGWMLEHTEAVMKVSITPRTNAALGFAQMLPRDQHLFTKEQLFERMCMALGGRASEALSFNEVTSGAQDDLRKVTRIAYSMVKQFGMAPGIGPISFPEAQEGLMGIGRRPFSQGLQQMMDHEARLLVAKAYRHTEKVLQDNLDKLQALANALLEKEVINYEDIEALIGPPPHGPKKMIAPQRWIDAQREKQDLGEEETEETQQPPLGGEEPTWPK [SPG7] | 51.2 | 51.9 | -0.102 | 0.0611 | 2.94 | 1.55
6 | MALKVATVAGSAAKAVLGPALLCRPWEVLGAHEVPSRNIFSEQTIPPSAKYGGRHTVTMIPGDGIGPELMLHVKSVFRHACVPVDFEEVHVSSNADEEDIRNAIMAIRRNRVALKGNIETNHNLPPSHKSRNNILRTSLDLYANVIHCKSLPGVVTRHKDIDILIVRENTEGEYSSLEHESVAGVVESLKIITKAKSLRIAEYAFKLAQESGRKKVTAVHKANIMKLGDGLFLQCCREVAARYPQITFENMIVDNTTMQLVSRPQQFDVMVMPNLYGNIVNNVCAGLVGGPGLVAGANYGHVYAVFETATRNTGKSIANKNIANPTATLLASCMMLDHLKLHSYATSIRKAVLASMDNENMHTPDIGGQGTTSEAIQDVIRHIRVINGRAVEA [IDH3G] | 54.5 | 54 | -0.0967 | 0.253 | -0.804 | -0.821
7 | MATDTSQGELVHPKALPLIVGAQLIHADKLGEKVEDSTMPIRRTVNSTRETPPKSKLAEGEEEKPEPDISSEESVSTVEEQENETPPATSSEAEQPKGEPENEEKEENKSSEETKKDEKDQSKEKEKKVKKTIPSWATLSASQLARAQKQTPMASSPRPKMDAILTEAIKACFQKSGASVVAIRKYIIHKYPSLELERRGYLLKQALKRELNRGVIKQVKGKGASGSFVVVQKSRKTPQKSRNRKNRSSAVDPEPQVKLEDVLPLAFTRLCEPKEASYSLIRKYVSQYYPKLRVDIRPQLLKNALQRAVERGQLEQITGKGASGTFQLKKSGEKPLLGGSLMEYAILSAIAAMNEPKTCSTTALKKYVLENHPGTNSNYQMHLLKKTLQKCEKNGWMEQISGKGFSGTFQLCFPYYPSPGVLFPKKEPDDSRDEDEDEDESSEEDSEDEEPPPKRRLQKKTPAKSPGKAASVKQRGSKPAPKVSAAQRGKARPLPKKAPPKAKTPAKKTRPSSTVIKKPSGGSSKKPATSARKEVKLPGKGKSTMKKSFRVKK [HP1BP3] | 51.8 | 51.5 | 0.474 | -1.01 | 0.824 | 0.423
8 | MVVLSVPAEVTVILLDIEGTTTPIAFVKDILFPYIEENVKEYLQTHWEEEECQQDVSLLRKQAEEDAHLDGAVPIPAASGNGVDDLQQMIQAVVDNVCWQMSLDRKTTALKQLQGHMWRAAFTAGRMKAEFFADVVPAVRKWREAGMKVYIYSSGSVEAQKLLFGHSTEGDILELVDGHFDTKIGHKVESESYRKIADSIGCSTNNILFLTDVTREASAAEEADVHVAVVVRPGNAGLTDDEKTYYSLITSFSELYLPSST [ENOPH1] | 50.6 | 50.7 | -0.175 | 0.267 | 2.1 | 3.35
9 | MSNKEGSGGFRKRKHDNFPHNQRREGKDVNSSSPVMLAFKSFQQELDARHDKYERLVKLSRDITVESKRTIFLLHRITSAPDMEDILTESEIKLDGVRQKIFQVAQELSGEDMHQFHRAITTGLQEYVEAVSFQHFIKTRSLISMDEINKQLIFTTEDNGKENKTPSSDAQDKQFGTWRLRVTPVDYLLGVADLTGELMRMCINSVGNGDIDTPFEVSQFLRQVYDGFSFIGNTGPYEVSKKLYTLKQSLAKVENACYALKVRGSEIPKHMLADVFSVKTEMIDQEEGIS [TSNAX] | 54.7 | 56.3 | -0.0987 | 0.379 | -0.435 | -1.45
10 | MAVRSLWAGRLRVQRLLAWSAAWESKGWPLPFSTATQRTAGEDCRSEDPPDELGPPLAERALRVKAVKLEKEVQDLTVRYQRAIADCENIRRRTQRCVEDAKIFGIQSFCKDLVEVADILEKTTECISEESEPEDQKLTLEKVFRGLLLLEAKLKSVFAKHGLEKLTPIGDKYDPHEHELICHVPAGVGVQPGTVALVRQDGYKLHGRTIRLARVEVAVESQRRL [GRPEL2] |  | 48.4 | -0.104 | 0.335 | -0.696 | 2.19
11 | MAATGANAEKAESHNDCPVRLLNPNIAKMKEDILYHFNLTTSRHNFPALFGDVKFVCVGGSPSRMKAFIRCVGAELGLDCPGRDYPNICAGTDRYAMYKVGPVLSVSHGMGIPSISIMLHELIKLLYYARCSNVTIIRIGTSGGIGLEPGTVVITEQAVDTCFKAEFEQIVLGKRVIRKTDLNKKLVQELLLCSAELSEFTTVVGNTMCTLDFYEGQGRLDGALCSYTEKDKQAYLEAAYAAGVRNIEMESSVFAAMCSACGLQAAVVCVTLLNRLEGDQISSPRNVLSEYQQRPQRLVSYFIKKKLSKA [UPP1] | 56.8 | 56.3 | -0.279 | 0.102 | -4.67 | -3.64
